Measured values published in patent US9084734B2, “Peptide personal care compositions and methods for their use” (Danisco US Inc., priority 2005, dated 2015).
Bridge positions count the residues as written; N and C are the ends. Peptide text beside a SMILES is read from it.

Experiments:
Human VEGF165 [1] = molecular target: T1, Human VEGF165 (Homo sapiens, UniProt P15692); assay: BIAcore binding analysis of VEGF-binding peptides (surface plasmon resonance); settings: 1:1 Langmuir binding; 1000 RU VEGF, 850 RU TNFα
T1 construct: purchased Biosource
T1 sequence (P15692 27-191 isoform P15692-4): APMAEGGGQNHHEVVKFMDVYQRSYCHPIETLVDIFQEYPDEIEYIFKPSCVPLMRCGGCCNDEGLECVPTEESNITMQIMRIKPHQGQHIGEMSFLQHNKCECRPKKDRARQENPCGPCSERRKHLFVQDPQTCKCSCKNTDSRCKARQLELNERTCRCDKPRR
Description: FIG. 3 provides results of a BIACORE binding analysis of VEGF binding peptides. Binding curves were obtained as described in the Examples. Data were fit to a two state reaction model with conformation change: Analyte (A) binds to ligand (B) to form complex AB.
In this Example, experiments conducted to assess the affinities of the peptides for VEGF are described. Affinities of the peptides for VEGF were measured using a BIAcore™-3000 surface plasmon resonance system (Biacore). A CM5 sensor chip was conditioned with 50 mM NaOH, 0.1% HCl, 0.1% SDS, and 0.08% H3PO4, and activated for covalent coupling of VEGF using N-ethyl-N′-(3-dimethylaminopropyl)-carbodiimide hydrochloride (EDC) and N-hydroxysuccinimide (NHS) according to the supplier's instructions (Biacore). Human VEGF165 (Biosource) was diluted to 5 μg/ml in 20 mM sodium acetate, pH 4.8 and injected at a flow rate of 2 μl/min to achieve approximately 1000 to 6000 response units (RU) of coupled protein. TNF-alpha (human TNF-alpha, Biosource, Int., Camarillo, Calif.) was similarly coupled to the CM5 sensor chip to approximately 850 to 3500 RU in the reference lane. A solution of 1 M ethanolamine was injected as a blocking agent. In some experiments, an additional solution of EDC and NHS were injected to improve baseline stability and a solution of 1 M ethanolamine injected as a blocking agent. The reference lane was activated with EDC and NHS and blocked with ethanolamine.
Peptides were synthesized using standard FMOC chemistry, purified by reverse phase HPLC to >95% purity (SynPep), and stored at 10 mg/mL in DMSO. For kinetic measurements, twofold serial diluted peptides in HBS-EP buffer, 0.01 M HEPES pH 7.4, 0.15 M NaCl, 3 mM EDTA, 0.005% Surfactant P20 (Biacore), were injected at 25° C. at a flow rate of 20 μL/min. Two-fold serial diluted DMSO samples and buffer samples were also injected for background subtraction. Kinetic parameters were calculated using BIAevaluation 3.1 software.

VegF = molecular target: T2, VegF (Homo sapiens, UniProt P15692); assay: Electrochemiluminescence (BioVeris) competition with Anti-VegF antibody for binding to VegF; settings: ECL labeled Anti-VegF antibody, biotinylated VegF; for competition with Anti-VegF antibody for binding to VegF: 2 h room temperature
T2 construct: purchased PeproTech
T2 sequence (P15692 27-191 isoform P15692-4): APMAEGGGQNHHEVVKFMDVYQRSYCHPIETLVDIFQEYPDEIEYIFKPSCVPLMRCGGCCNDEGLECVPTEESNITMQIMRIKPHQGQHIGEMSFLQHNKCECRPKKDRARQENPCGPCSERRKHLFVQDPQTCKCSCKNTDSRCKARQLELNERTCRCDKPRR
Description: FIG. 19 provides a graph showing results from a competition analysis of 2BBlck81 versus anti-VegF antibody binding to VegF.
Briefly, after cleavage, the pH of the cleaved sample was adjusted to 5.5, the sample was then loaded onto the column (equilibrated with 25 mM MES pH 5.5). The free 2BBIck81 was washed through the column using 25 mM sodium acetate pH 5.0 while the BCE103 catalytic core remained bound to the resin. The 2BBIck81 fraction was concentrated by ultrafiltration and analyzed using an electrochemiluminescence (ECL) based binding assay (BioVeris). The Anti-VegF antibody (Santa Cruz) and VegF (PeproTech) were labeled with the electrochemiluminescent dye and biotin, respectively, as described by the manufacturer (BioVeris). All materials were in Dulbecco's PBS (Mediatech) supplemented with 0.1% TWEEN®-80. An initial dilution series of Anti-VegF antibody (125, 250 and 500 ng/ml) and VegF (100, 150, 200 and 250 ng/ml) were tested in the binding assay to determine the concentrations of each that would give a robust ECL signal.
For testing 2BBIck81 binding, 50 μL of 500 ng/ml ECL labeled Anti-VegF antibody, 50 μL of 250 ng/ml biotinylated VegF and 100 μL 2BBIck81 (series of 12.5, 15, 31.25, 62.5, 125, 250 or 500 ng/ml) were incubated at room temperature for 2 h with shaking. Then, 50 μL of 0.2 mg/ml streptavidin coated beads were added and the reaction was incubated at room temperature for 30 minutes. The ECL signal was measured using a BioVeris M8/384 Analyzer as described by the manufacturer (BioVeris).

Human VEGF165 [2] = molecular target: T1, Human VEGF165; assay: BIAcore binding analysis of BBI-VEGF; settings: refolded protein, trypsin and chymotrypsin coupled in remaining lanes
Description: In this Example, experiments conducted to determine the binding affinity of constructs produced as indicated in Example 9 are described. Affinities of BBI-VEGF constructs for VEGF were measured using BIAcore-3000 surface plasmon resonance (Biacore). A CM5 sensor chip was conditioned with 50 mM NaOH and activated for covalent coupling of VEGF using N-ethyl-N′-(3-dimethylaminopropyl)-carbodiimide hydrochloride (EDC) and N-hydroxysuccinimide (NHS) according to the supplier's instructions (Biacore). VEGF (human VEGF165, Biosource) was diluted to 5 μg/mL in 20 mM sodium acetate, pH 4.8, and injected at a flow rate of 2 μL/min to achieve approximately 1000 to 6000 response units (RU) of coupled protein. Trypsin and chymotrypsin were similarly coupled to the CM5 sensor chip to approximately 850 to 3500 RU in remaining lanes. A solution of 1M ethanolamine was injected as a blocking agent.

[3] = system: skin of subjects with Fitzpatrick skin types III or IV; assay: Skin lightening study, occlusive patches on lower back, clinical tanning grade; type: in vivo, human
Description: In this Example, experiments conducted to assess the skin lightening capabilities of BBI-AV are described. Thirteen subjects, ages 18-65, with Fitzpatrick skin types III or IV participated in this 22-day study. The Fitzpatrick skin classification is based on the skin's unprotected response to the first 30 to 45 minutes of sun exposure following a winter season without sun exposure. The categories of skin types are:
Five test sites of uniform color were marked on the lower back of each subject. The clinical grader assessed the degree of tan at each site using a 0-10 scale (0=very slight tan and 10=very deep tanning.). Each subject was pre-treated with one concentration of Molecule A, two concentrations of Molecule B, vehicle control buffer, and an untreated site for 11 consecutive days. Approximately 150 uL of test materials (0.1% and 0.9% of BBI-AV) and vehicle control were dosed onto the lower back using occlusive patches. Occlusive patches consisted of a Webril® (non-woven cotton) pad held to the skin with a porous, hypoallergenic tape (e.g., SCANPORE® or MICROPORE®). A strip of BLENDERM® tape equal in width of the cotton pad covered the outside of the tape to provide the occlusive patch. Patches remained in place until a clinician removed them the next day. This patching procedure was repeated for 11 days.
On day 12, the clinician removed the patches that were applied the previous day and the site was gently wiped to remove residual test material. The clinical grader assessed the degree of tan at each site using a […].

[4] = system: skin of individuals of skin type III and IV; assay: Reduction of skin pigmentation induced by UVA exposure (MPPD), clinical tanning grade; type: in vivo, human; settings: for Day 13 Avg. Tanning Grade / Day 14 Avg. Tanning Grade / Day 15 Avg. Tanning Grade: 1.0 MPPD UVA daily on days 12-14, 0-10 scale; for Change on Day 13 (tanning grade minus day 12 grade) / Change on Day 14 (tanning grade minus day 12 grade) / Change on Day 15 (tanning grade minus day 12 grade): UVA-induced pigmentation; for Day 12 Avg. Tanning Grade: after 11 days of patches, before UVA exposure, 0-10 scale
Description: In this Example, experiments conducted to test the ability of BBI-AV to reduce skin pigmentation induced by UVA exposure are described. This study was conducted with 13 individuals of skin type III and IV based on The Fitzpatrick skin classification. On day one, each subject's minimal persistent pigment darkening dose (MPPD) was determined on the lower back of each individual, in an area that is equal in color to the area that received test material application. […] Subjects returned to the clinic 34 hours after the MPPD exposures were complete. The test sites were scored for pigment darkening using the following scale: • - no visible pigment darkening • ? questionable response; unclear • + slight darkening over essentially the whole irradiation field • ++ definite darkening over the whole irradiation field The site treated with the lowest dose of UVA producing a score of ‘+’ represented that subject's MPPD. On day two, sites of uniform color were marked on the lower back. The clinical grader assessed the degree of tan at each site using a 0-10 scale (0=very slight tan and 10=very deep tanning.) Then the Test material (0.1% and 0.9% of BBI-AV) and the vehicle control applied under occlusion. A volume of 150 μl was dosed onto each patch. The occlusive patches used hte these experiments were the same as described in Example 2. As described in Example 2, the patches remained in place until the next day, when a clinician removed them. This patching procedure was repeated for 11 days. On the days 12-14, the clinician removed the patches that were applied the previous day and the site was gently wiped to remove residual test material. The clinical grader assessed the degree of tan at each site using a 0-10 scale (0=no tan and 10=very deep tanning.) After grading was complete, each site was exposed to 1.0 MPPD of UVA as described for Day 1. New patches were applied after exposures were completed. On day 15, patches were removed and the degree of tan at each site was assessed using a 0-10 scale (0=no tan and 10=very deep tanning). […] In this table, the tanning grade results are shown as the results obtained for day 12 subtracted from grades of days 13, 14 and 15.

Molecule: CC[C@H](C)[C@@H]1NC(=O)[C@H](CC(=O)O)NC(=O)[C@@H](NC(=O)[C@H](CC(N)=O)NC(=O)[C@@H]2CCCN2C(=O)[C@H](CCC(=O)O)NC(=O)[C@@H](N)C(C)C)CSSC[C@@H](C(=O)N[C@@H](Cc2ccccc2)C(=O)N[C@@H](CCC(=O)O)C(=O)N[C@@H](CCCNC(=N)N)C(=O)N[C@@H](CC(C)C)C(N)=O)NC(=O)[C@H](CCC(=O)O)NC(=O)[C@H](Cc2c[nH]c3ccccc23)NC(=O)[C@H](CCC(=O)O)NC(=O)[C@H](Cc2c[nH]c3ccccc23)NC(=O)[C@H](CCSC)NC(=O)[C@H](C(C)C)NC(=O)[C@H](Cc2c[nH]cn2)NC1=O [v114, reference compound] (H-VEPNCDIHVMWEWECFERL-NH2; disulfide 5-15; N-terminus and C-terminus assumed)
- Kd (Human VEGF165 [1]): 223 nM
- kd1 (Human VEGF165 [1]): 0.167 s⁻¹

B1: 1BBIck81: BBI with the grafted CK37281 peptide in the trypsin loop (protein)
chain: DDESSKPCCDQCACYNLYGWTCRCSDMRLNSCHSACKSCICALSYPAQCFCVDITDFCYEPCKPSEDDKEN
- competition with Anti-VegF antibody for binding to VegF (VegF): also competed with the Anti-VegF antibody

B2: BBI-VEGF1: BBI-VEGF fusion (SEQ ID NO:22) with only one of the binding loops replaced (protein)
chain: DDESSKPCCDQCACYNLYGWTCRCSDMRLNSCHSACKSCICALSYPAQCFCVDLTDFCEPCKPSEDDKEN
modifications: synthetic fusion peptide
- specific/selective binding to VEGF (Human VEGF165 [2]): binds specifically to VEGF
- specific/selective binding to VEGF (Human VEGF165 [2]; listed as BBI-VEGF): Selective binding affinity to VEGF

B3: BBI-AV: BBI sequences having anti-VEGF (AV) sequences incorporated; primary active of the personal care compositions (protein)
chain: DDESSKPCCDQCACYNLYGWTCRCSDMRLNSCHSACKSCICALSYPAQCFCVDLTDFCEPCKPSEDDKEN
- change in tanning grade versus vehicle control ([3]; 0.1% and 0.9% of BBI-AV, 150 uL under occlusive patches for 11 days, graded day 12): greater change in the tanning grade
- Change in Average Tanning Grade ([3]; 0.9% BBI-AV, Day 11 versus Day 1): −0.27
- Average Day 1 Tanning Grade ([3]; 0.9% BBI-AV, occlusive patch on lower back, baseline before treatment, clinical grader scale): 4.96
- Average Day 11 Tanning Grade ([3]; 0.9% BBI-AV, occlusive patches for 11 consecutive days, clinical grader scale): 4.69
- Day 13 Avg. Tanning Grade ([4]; 0.1% BBI-AV): 5.08
- Day 14 Avg. Tanning Grade ([4]; 0.1% BBI-AV): 5.13
- Day 15 Avg. Tanning Grade ([4]; 0.1% BBI-AV): 5.5
- Change on Day 13 (tanning grade minus day 12 grade) ([4]; 0.1% BBI-AV): 0.32
- Change on Day 14 (tanning grade minus day 12 grade) ([4]; 0.1% BBI-AV): 0.37
- Change on Day 15 (tanning grade minus day 12 grade) ([4]; 0.1% BBI-AV): 0.74
- Day 12 Avg. Tanning Grade ([4]; 0.1% BBI-AV): 4.76
- UVA induced pigmentation ([4]; 0.1% and 0.9% of BBI-AV under occlusion, 1.0 MPPD of UVA on days 12-14): UVA induced pigmentation is decreased
- Day 13 Avg. Tanning Grade ([4]; 0.9% BBI-AV): 4.92
- Day 14 Avg. Tanning Grade ([4]; 0.9% BBI-AV): 5.04
- Day 15 Avg. Tanning Grade ([4]; 0.9% BBI-AV): 5.5
- Change on Day 13 (tanning grade minus day 12 grade) ([4]; 0.9% BBI-AV): 0.23
- Change on Day 14 (tanning grade minus day 12 grade) ([4]; 0.9% BBI-AV): 0.35
- Change on Day 15 (tanning grade minus day 12 grade) ([4]; 0.9% BBI-AV): 0.81
- Day 12 Avg. Tanning Grade ([4]; 0.9% BBI-AV): 4.69

B4: 2BBIck81: BBI with the grafted CK37281 peptide in the chymotrypsin loop (protein)
chain: DDESSKPCCDQCACTKSNPPQCRCSDMRLNSCHSACKSCACYNLYGWTCFCVDITDFCYEPCKPSEDDKEN
- competition for VegF binding compared with synthesized CK37281 peptide (VegF): competed for VegF binding better than the synthesized CK37281 peptide itself
- competition with Anti-VegF antibody for binding to VegF (VegF): competed with the Anti-VegF antibody for binding to VegF at micromolar concentrations
